Test [1] addresses T1, HBVc18 peptide-MHC complex (HBVc18pMHC), biotinylated recombinant tripartite complex of HLA-A*0201, human … (human; hepatitis B virus).
T1 construct: also called HLA-A*0201: HBc18; target peptide-MHC complex
Description: SPR (ProteOn), biotinylated HBVc18pMHC on the NLC chip, DARPin protein injected, multi-trace fit [continued) J].
Description: (§1) The binding affinities of the purified ankyrin repeat proteins on the HBVc18pMHC target were analyzed using a ProteOn Surface Plasmon Resonance (SPR) instrument (BioRad) and the measurement was performed according standard procedures known to the person skilled in the art.
(§2) Briefly, biotinylated HBVc18pMHC were diluted in PBST (PBS, pH 7.4 containing 0.005% Tween 20®) and coated on a NLC chip (BioRad) to a level of around 1000 resonance units (RU). […] No target regeneration was performed. The signals (i.e. resonance unit (RU) values) of the interspots were subtracted from the RU traces obtained after injection of ankyrin repeat protein. Based on the SPR traces obtained from the on-rate and off-rate measurements, the on- and off-rates of the corresponding ankyrin repeat proteins towards the pMHC complexes were determined.

Test [2] concerns the target T1, HBVc18 peptide-MHC complex …. Description: SPR (ProteOn), biotinylated HBVc18pMHC on NLC chip, ankyrin repeat protein injected, PBST.
Description: as §2
Dissociation constants (KD) were calculated from the estimated on- and off-rates using standard procedures known to the person skilled in the art.
For test [3] the target is unchanged. Description: SPR (ProteOn), biotinylated HBVc18pMHC on the NLC chip, DARPin protein injected, multi-trace fit.
Description: as §1, §2
Test [4] has the same target. Description: SPR (ProteOn), biotinylated HBVc18pMHC on the NLC chip, DARPin protein injected, multi-trace fit [continued) G].
Description: as §1, §2
For test [5] the target is unchanged. Description: SPR (ProteOn), biotinylated HBVc18pMHC on the NLC chip, DARPin protein injected, multi-trace fit. This is another data set of the same source.
Description: as §1, §2
The target is the same in test [6]. Description: SPR (ProteOn), biotinylated HBVc18pMHC on the NLC chip, DARPin protein injected, multi-trace fit [continued) F].
Description: as §1, §2
For test [7] the target is unchanged. Description: SPR (ProteOn), biotinylated HBVc18pMHC on the NLC chip, DARPin protein injected, multi-trace fit [continued) E].
Description: as §1, §2
Test [8] has the same target. Description: SPR (ProteOn), biotinylated HBVc18pMHC on the NLC chip, DARPin protein injected, multi-trace fit. The source holds these as a separate data set.
Description: as §1, §2
Test [9] has the same target. Description: SPR (ProteOn), biotinylated HBVc18pMHC on the NLC chip, DARPin protein injected, multi-trace fit [continued) H].
Description: as §1, §2
The target is the same in test [10]. Description: SPR (ProteOn), biotinylated HBVc18pMHC on the NLC chip, DARPin protein injected, multi-trace fit [continued) D].
Description: as §1, §2
Test [11] has the same target. Description: SPR (ProteOn), biotinylated HBVc18pMHC on the NLC chip, DARPin protein injected, multi-trace fit [continued) I].
Description: as §1, §2

B1: TCE DARPin® protein #26 (designed binder, not shown: small tags and cut ends)
chain: GSDLGKKLLQAARAGQLDEVHELLKAGADVNAKDQHGKTPMHLAAQIGHLEIVEVLLKAGADVNAKDHIGWTPLHLAASVGHLEIVEVLLKAGADVNAKDQEGWTPLHVAAQLGHLEIVEVLLKAGADVNAQDKSGKTPADLAARAGHQDSAEVLQKAA
As to B1, in test [1], the koff was 0.000812 s⁻¹ and the kon is 87000 M⁻¹ s⁻¹. For the same molecule, the Kd in test [2] turned out to be 9.33 nM.

B2: TCE DARPin® protein #18 (designed binder, not shown: small tags and cut ends)
chain: GSDLGYKLLTAAIVGQDDEVRILLAAGADVNAKDQSGLTPLHLAAAYGHLEIVEVLLKAGADVNAKDKHGRTPLHLAALEGHLEIVEVLLKAGADVNAQDQFGITPADLAAAVGHEDIAEVLQKAA
With B2, the Kd in [2] is 7.15 nM. Besides, in test [3], the koff stood at 0.00218 s⁻¹ and the kon was 305000 M⁻¹ s⁻¹.

B3: TCE DARPin® protein #23 (designed binder, not shown: small tags and cut ends)
chain: GSDLGQKLLTAAIVGQDDEVRILLAAGADVNAKDQSGLTPLHLAAAYGHLEIVEVLLKAGADVNAKDKHGRTPLHLAALEGHLEIVEVLLKAGADVNAQDQFGITPADLAAAVGHEDIAEVLQKAA
Take B3: in test [2], the dissociation constant (Kd) was found to be 7.1 nM. For the same molecule, in test [4], the off-rate constant (koff) was found to be 0.00274 s⁻¹ and the kon is 387000 M⁻¹ s⁻¹.

B4: TCE DARPin® protein #17 (designed binder, not shown: small tags and cut ends)
chain: GSDLGQKLLLAAAIGQDDEVRILLAAGADVNAKDESGHTPLHYAAHVGHLEIVEVLLKAGDVNAKDHRGFTPLHVAAQIGHLEIVEVLLKAGADVNAQDNWGITPADLAAWWGHEDIAEVLQKAA
B4: the dissociation constant (Kd) in test [2] worked out at 0.369 nM. Also, in test [5], the koff stood at 6.24e-06 s⁻¹ and the association rate constant (kon) was found to be 16900 M⁻¹ s⁻¹.

B5: TCE DARPin® protein #22 (designed binder, not shown: small tags and cut ends)
chain: GSDLGKKLLSAAQSGQDDEVRILLGAGADVNAKDKWGHTPLHLAAVKGHLEIAEVLLKAGADVNAKDEWGSTPLHLAASQGHLEIVEVLLKAGADVNAKDKKGATPLHLAALVGHLEIVEVLLKAVADVNAQDKSGKTPADLAARAGHQDIAEVLQKAA
Regarding B5, the Kd in test [2] amounted to 13.8 nM. Further, in test [6], the koff is 0.0115 s⁻¹ and the association rate constant (kon) was found to be 833000 M⁻¹ s⁻¹.

B6: TCE DARPin® protein #21 (designed binder, not shown: small tags and cut ends)
chain: GSDLGIKLLFAANFGQDDEVRILLAAGADVNAKDQSGRTPLHLAALWGHLEIVEVLLKAGADVNAKDVFGLTPLHIAATFGHLEIVEVLLKAGVDVNAQDYTGHTPADLAALIGHEDIAEVLQKAA
As for B6, the Kd in [2] was found to be 9.23 nM. Also, in test [7], the koff worked out at 0.00106 s⁻¹ and the on-rate (kon) is 115000 M⁻¹ s⁻¹.

B7: TCE DARPin® protein #16 (designed binder, not shown: small tags and cut ends)
chain: GSDLGHKLLFAASAGQDDEVRILLAAGADVNAKDESGQTPLHYAAFVGHLEIVEVLLKAGADVNAKDQWGHTPLHVAATFGHLEIVEVLLKAGADVNAQDTWGTTPADLAATFGHEDIAEVLQKAA
In the case of B7, the Kd in [2] worked out at 4.65 nM. In addition, in test [8], the dissociation rate constant (koff) worked out at 0.000307 s⁻¹ and the kon is 66100 M⁻¹ s⁻¹.

B8: TCE DARPin® protein #24 (designed binder, not shown: small tags and cut ends)
chain: GSDLGWKLLHAATTGQDDEVRILLAAGADVNAKDESGQTPLHYAAFVGHLEIVEVLLKAGADVNAKDQWGHTPLHVAATFGHLEIVEVLLKAGADVNAQDTWGTTPADLAATFGHEDIAEVLQKAA
Take B8: the Kd in test [2] amounted to 4.72 nM. In addition, in test [9], the koff amounted to 0.000288 s⁻¹ and the on-rate (kon) worked out at 61100 M⁻¹ s⁻¹.

B9: TCE DARPin® protein #20 (designed binder, not shown: small tags and cut ends)
chain: GSDLGFKLLEAALEGQDDEVRILLAAGADVNAKDESGQTPLHYAAFVGHLEIVEVLLKAGADVNAKDQWGHTPLHVAATFGHLEIVEVLLKAGADVNAQDTWGTTPADLAATFGHEDIAEVLQKAA
Regarding B9, in [10], the koff came out at 3.26e-05 s⁻¹ and the on-rate constant (kon) was 44300 M⁻¹ s⁻¹. In [2], the Kd is 0.736 nM.

B10: TCE DARPin® protein #25 (designed binder, not shown: small tags and cut ends)
chain: GSDLGSKLLYAAISGQDDEVRILLAAGADVNAKDESGQTPLHYAAFVGHLEIVEVLLKAGADVNAKDQWGHTPLHVAATFGHLEIVEVLLKAGADVNAQDTWGTTPADLAATFGHEDIAVVLQKAA
Turning to B10, the Kd in [2] is 1.03 nM. In addition, in test [11], the koff was found to be 3.17e-05 s⁻¹ and the association rate constant (kon) was determined as 30800 M⁻¹ s⁻¹.

One may read the koff as the first-order rate constant of dissociation. A word on the kon: it is a measure of how fast the partners come together. The Kd is a measure of binding affinity in units of concentration.

Values taken from patent publication US20230041822A1 (Molecular Partners, published 2023).
